Assays:
canine PRP = test: ADP-induced platelet aggregation in canine PRP; type: cell-based; conditions: 20 μM ADP
Protocol: Column fractions obtained during purification were assayed for activity using fresh human platelet rich plasma (PRP) prepared from blood obtained from human volunteers who had had no medication for at least two weeks. Blood (36 ml) was drawn into 4 ml of 0.1 M citrate and centrifuged at 150×g for 20 minutes. The supernatant, PRP, was removed and the remaining blood was centrifuged at 10,000 RPM to obtain platelet poor plasma (PPP). Platelet counts were adjusted to 250,000 platelets/μl using a Coulter counter. A Helena four channel aggregometer was used to monitor platelet aggregation. Inhibition of ADP-induced platelet aggregation was monitored at 37° C. by adding venom fractions one minute prior to the addition of ADP (10-20 μM final concentration). […] Rabbit and canine PRP was prepared by the same procedure and used in the studies described below.
CN inhibited ADP-induced platelet aggregation in human, canine, and rabbit PRPs (FIG. 6). Empty circles represent human platelet rich plasma, solid circles represent canine PRP, and empty triangles represent rabbit PRP. Varying concentration of CN were preincubated for one minute with PRP prior to the addition of ADP.

[1] = tested on: canine carotid artery thrombosis model; test: Reoccluding canine carotid artery thrombosis model; type: in vivo
Excerpt: The model of carotid artery thrombosis in the anesthetized canine described is a modification of one developed for the study of experimentally-induced coronary artery thrombosis [Romson, J. L. et al., Thromb. Res. 17:841 (1980)]. The experimental procedure results in the formation of a platelet rich intravascular thrombus at the site of an electrolytically-induced endothelial lesion in proximity to a distal arterial stenosis. The carotid artery is selected for the experimental model, thereby allowing one vessel to be used as a control and the other to be used after administration of the thrombolytic and antithrombotic therapy. APSAC (anisoylated plasminogen streptokinase activator complex) has been used as the thrombolytic agent successfully in this model. […] Parameters which are recorded include repeated measures of: phasic and mean carotid artery blood flow velocity using an ultrasonic flow probe, time to thrombotic occlusion, time to recannulization, ex vivo platelet aggregation, prothrombin time, thrombin time, activated partial thromboplastin time, red cell and white cell counts, hematocrit, EKG profile and body temperature, before and after administration of APSAC or APSAC plus CN to separate groups of animals.
Conditioned male mongrel dogs (8-10 kg) have been used for all in vivo studies. […] Arterial blood pressure is monitored from the cannulated femoral artery with the use of a blood pressure transducer. […] Blood flow velocity in the carotid vessels is monitored continuously. […]
Electrolytic injury to the intimal surface of each carotid vessel is accomplished with the use of an intravascular electrode. […] The current delivered to each vessel is monitored continuously and maintained at 300 μA. […]

B1: contortrostatin (protein)
chain: DAPANPCCDAATCKLTTGSQCADGLCCDQCKFMKEGTVCRRARGDDLDDYCNGISAGCPRNPFHA
Canine PRP
  IC50 of ADP-induced canine platelet aggregation: 1.8 µg/mL
[1]; by the conclusion of the experimental procedure
  recovery of platelet counts: 30-40 % of the baseline value
[1]; during experiment, APSAC plus CN (0.155 mg/kg)
  drop in platelet counts: 10-20 % of the baseline value
[1]; following infusion of CN
  changes in mean arterial blood pressure or mean heart rate: essentially no changes

Source: US6710030B1, “Contortrostain (CN) and methods for its use in preventing metastasis and other conditions” (University of Southern California, priority 1993, dated 2004)
